Experimental data reported in the Human Domainome abundance scans (Beltran et al. 2025).
± gives the uncertainty stated by the source.

B1: POU domain, class 4, transcription factor 3, residues 185 to 256; numbered along this chain, Q15319 (parent)
chain: RELEAFAERFKQRRIKLGVTQADVGAALANLKIPGVGSLSQSTICRFESLTLSHNNMIALKPVLQAWLEEAE

Variants of: B1
Assay: abundance fitness (aPCA) (normalised: wild type 0, dead -1); higher = more abundant; growth selection in yeast, the domain comes from the species named
Details: Homo sapiens

Variant | abundance fitness
RELEAFAERFKQRRIKLGVTDADVGAALANLKIPGVGSLSQSTICRFESLTLSHNNMIALKPVLQAWLEEAE | -0.262 ± 0.42
RELEAFAERFKQRRIKLGVTEADVGAALANLKIPGVGSLSQSTICRFESLTLSHNNMIALKPVLQAWLEEAE | 0.081 ± 0.11
RELEAFAERFKQRRIKLGVTFADVGAALANLKIPGVGSLSQSTICRFESLTLSHNNMIALKPVLQAWLEEAE | -0.413 ± 0.11
RELEAFAERFKQRRIKLGVTGADVGAALANLKIPGVGSLSQSTICRFESLTLSHNNMIALKPVLQAWLEEAE | -0.429 ± 0.15
RELEAFAERFKQRRIKLGVTHADVGAALANLKIPGVGSLSQSTICRFESLTLSHNNMIALKPVLQAWLEEAE | 0.294 ± 0.16
RELEAFAERFKQRRIKLGVTIADVGAALANLKIPGVGSLSQSTICRFESLTLSHNNMIALKPVLQAWLEEAE | -0.035 ± 0.07
RELEAFAERFKQRRIKLGVTKADVGAALANLKIPGVGSLSQSTICRFESLTLSHNNMIALKPVLQAWLEEAE | -0.285 ± 0.13
RELEAFAERFKQRRIKLGVTLADVGAALANLKIPGVGSLSQSTICRFESLTLSHNNMIALKPVLQAWLEEAE | -0.192 ± 0.1
RELEAFAERFKQRRIKLGVTMADVGAALANLKIPGVGSLSQSTICRFESLTLSHNNMIALKPVLQAWLEEAE | -0.502 ± 0.17
RELEAFAERFKQRRIKLGVTNADVGAALANLKIPGVGSLSQSTICRFESLTLSHNNMIALKPVLQAWLEEAE | 0.112 ± 0.18
RELEAFAERFKQRRIKLGVTPADVGAALANLKIPGVGSLSQSTICRFESLTLSHNNMIALKPVLQAWLEEAE | -0.238 ± 0.38
RELEAFAERFKQRRIKLGVTRADVGAALANLKIPGVGSLSQSTICRFESLTLSHNNMIALKPVLQAWLEEAE | -0.31 ± 0.17
RELEAFAERFKQRRIKLGVTSADVGAALANLKIPGVGSLSQSTICRFESLTLSHNNMIALKPVLQAWLEEAE | -0.289 ± 0.074
RELEAFAERFKQRRIKLGVTTADVGAALANLKIPGVGSLSQSTICRFESLTLSHNNMIALKPVLQAWLEEAE | -0.193 ± 0.21
RELEAFAERFKQRRIKLGVTVADVGAALANLKIPGVGSLSQSTICRFESLTLSHNNMIALKPVLQAWLEEAE | -0.002 ± 0.11
RELEAFAERFKQRRIKLGVTWADVGAALANLKIPGVGSLSQSTICRFESLTLSHNNMIALKPVLQAWLEEAE | -0.331 ± 0.094
RELEAFAERFKQRRIKLGVTQCDVGAALANLKIPGVGSLSQSTICRFESLTLSHNNMIALKPVLQAWLEEAE | -0.264 ± 0.051
RELEAFAERFKQRRIKLGVTQDDVGAALANLKIPGVGSLSQSTICRFESLTLSHNNMIALKPVLQAWLEEAE | -0.176 ± 0.14
RELEAFAERFKQRRIKLGVTQFDVGAALANLKIPGVGSLSQSTICRFESLTLSHNNMIALKPVLQAWLEEAE | -0.163 ± 0.034
RELEAFAERFKQRRIKLGVTQGDVGAALANLKIPGVGSLSQSTICRFESLTLSHNNMIALKPVLQAWLEEAE | -0.055 ± 0.036
RELEAFAERFKQRRIKLGVTQHDVGAALANLKIPGVGSLSQSTICRFESLTLSHNNMIALKPVLQAWLEEAE | -0.107 ± 0.073
RELEAFAERFKQRRIKLGVTQIDVGAALANLKIPGVGSLSQSTICRFESLTLSHNNMIALKPVLQAWLEEAE | -0.5 ± 0.053
RELEAFAERFKQRRIKLGVTQKDVGAALANLKIPGVGSLSQSTICRFESLTLSHNNMIALKPVLQAWLEEAE | -0.263 ± 0.23
RELEAFAERFKQRRIKLGVTQLDVGAALANLKIPGVGSLSQSTICRFESLTLSHNNMIALKPVLQAWLEEAE | -0.265 ± 0.033
RELEAFAERFKQRRIKLGVTQMDVGAALANLKIPGVGSLSQSTICRFESLTLSHNNMIALKPVLQAWLEEAE | -0.179 ± 0.1

Variant | abundance fitness
RELEAFAERFKQRRIKLGVTQNDVGAALANLKIPGVGSLSQSTICRFESLTLSHNNMIALKPVLQAWLEEAE | -0.02 ± 0.074
RELEAFAERFKQRRIKLGVTQPDVGAALANLKIPGVGSLSQSTICRFESLTLSHNNMIALKPVLQAWLEEAE | -0.469 ± 0.05
RELEAFAERFKQRRIKLGVTQQDVGAALANLKIPGVGSLSQSTICRFESLTLSHNNMIALKPVLQAWLEEAE | -0.214 ± 0.12
RELEAFAERFKQRRIKLGVTQRDVGAALANLKIPGVGSLSQSTICRFESLTLSHNNMIALKPVLQAWLEEAE | -0.087 ± 0.037
RELEAFAERFKQRRIKLGVTQSDVGAALANLKIPGVGSLSQSTICRFESLTLSHNNMIALKPVLQAWLEEAE | -0.064 ± 0.035
RELEAFAERFKQRRIKLGVTQTDVGAALANLKIPGVGSLSQSTICRFESLTLSHNNMIALKPVLQAWLEEAE | -0.207 ± 0.054
RELEAFAERFKQRRIKLGVTQVDVGAALANLKIPGVGSLSQSTICRFESLTLSHNNMIALKPVLQAWLEEAE | -0.298 ± 0.05
RELEAFAERFKQRRIKLGVTQWDVGAALANLKIPGVGSLSQSTICRFESLTLSHNNMIALKPVLQAWLEEAE | -0.329 ± 0.064
RELEAFAERFKQRRIKLGVTQYDVGAALANLKIPGVGSLSQSTICRFESLTLSHNNMIALKPVLQAWLEEAE | -0.115 ± 0.052
RELEAFAERFKQRRIKLGVTQAFVGAALANLKIPGVGSLSQSTICRFESLTLSHNNMIALKPVLQAWLEEAE | -0.208 ± 0.21
RELEAFAERFKQRRIKLGVTQAGVGAALANLKIPGVGSLSQSTICRFESLTLSHNNMIALKPVLQAWLEEAE | -0.246 ± 0.49
RELEAFAERFKQRRIKLGVTQAHVGAALANLKIPGVGSLSQSTICRFESLTLSHNNMIALKPVLQAWLEEAE | -0.017 ± 0.23
RELEAFAERFKQRRIKLGVTQAKVGAALANLKIPGVGSLSQSTICRFESLTLSHNNMIALKPVLQAWLEEAE | -0.121 ± 0.19
RELEAFAERFKQRRIKLGVTQAMVGAALANLKIPGVGSLSQSTICRFESLTLSHNNMIALKPVLQAWLEEAE | -0.135 ± 0.11
RELEAFAERFKQRRIKLGVTQANVGAALANLKIPGVGSLSQSTICRFESLTLSHNNMIALKPVLQAWLEEAE | -0.112 ± 0.1
RELEAFAERFKQRRIKLGVTQATVGAALANLKIPGVGSLSQSTICRFESLTLSHNNMIALKPVLQAWLEEAE | -0.307 ± 0.18
RELEAFAERFKQRRIKLGVTQAYVGAALANLKIPGVGSLSQSTICRFESLTLSHNNMIALKPVLQAWLEEAE | -0.411 ± 0.16
RELEAFAERFKQRRIKLGVTQADAGAALANLKIPGVGSLSQSTICRFESLTLSHNNMIALKPVLQAWLEEAE | -0.142 ± 0.052
RELEAFAERFKQRRIKLGVTQADCGAALANLKIPGVGSLSQSTICRFESLTLSHNNMIALKPVLQAWLEEAE | -0.223 ± 0.046
RELEAFAERFKQRRIKLGVTQADDGAALANLKIPGVGSLSQSTICRFESLTLSHNNMIALKPVLQAWLEEAE | -0.675 ± 0.2
RELEAFAERFKQRRIKLGVTQADEGAALANLKIPGVGSLSQSTICRFESLTLSHNNMIALKPVLQAWLEEAE | -1.04 ± 0.23
RELEAFAERFKQRRIKLGVTQADFGAALANLKIPGVGSLSQSTICRFESLTLSHNNMIALKPVLQAWLEEAE | -0.709 ± 0.036
RELEAFAERFKQRRIKLGVTQADGGAALANLKIPGVGSLSQSTICRFESLTLSHNNMIALKPVLQAWLEEAE | -0.858 ± 0.075
RELEAFAERFKQRRIKLGVTQADHGAALANLKIPGVGSLSQSTICRFESLTLSHNNMIALKPVLQAWLEEAE | -0.917 ± 0.11
RELEAFAERFKQRRIKLGVTQADIGAALANLKIPGVGSLSQSTICRFESLTLSHNNMIALKPVLQAWLEEAE | -0.123 ± 0.051

Variant | abundance fitness
RELEAFAERFKQRRIKLGVTQADKGAALANLKIPGVGSLSQSTICRFESLTLSHNNMIALKPVLQAWLEEAE | -0.937 ± 0.087
RELEAFAERFKQRRIKLGVTQADLGAALANLKIPGVGSLSQSTICRFESLTLSHNNMIALKPVLQAWLEEAE | -0.137 ± 0.024
RELEAFAERFKQRRIKLGVTQADMGAALANLKIPGVGSLSQSTICRFESLTLSHNNMIALKPVLQAWLEEAE | -0.301 ± 0.041
RELEAFAERFKQRRIKLGVTQADPGAALANLKIPGVGSLSQSTICRFESLTLSHNNMIALKPVLQAWLEEAE | -0.842 ± 0.044
RELEAFAERFKQRRIKLGVTQADQGAALANLKIPGVGSLSQSTICRFESLTLSHNNMIALKPVLQAWLEEAE | -0.825 ± 0.075
RELEAFAERFKQRRIKLGVTQADRGAALANLKIPGVGSLSQSTICRFESLTLSHNNMIALKPVLQAWLEEAE | -0.83 ± 0.038
RELEAFAERFKQRRIKLGVTQADSGAALANLKIPGVGSLSQSTICRFESLTLSHNNMIALKPVLQAWLEEAE | -0.785 ± 0.041
RELEAFAERFKQRRIKLGVTQADTGAALANLKIPGVGSLSQSTICRFESLTLSHNNMIALKPVLQAWLEEAE | -0.565 ± 0.035
RELEAFAERFKQRRIKLGVTQADWGAALANLKIPGVGSLSQSTICRFESLTLSHNNMIALKPVLQAWLEEAE | -0.61 ± 0.055
RELEAFAERFKQRRIKLGVTQADYGAALANLKIPGVGSLSQSTICRFESLTLSHNNMIALKPVLQAWLEEAE | -0.962 ± 0.11
RELEAFAERFKQRRIKLGVTQADVAAALANLKIPGVGSLSQSTICRFESLTLSHNNMIALKPVLQAWLEEAE | 0.117 ± 0.11
RELEAFAERFKQRRIKLGVTQADVCAALANLKIPGVGSLSQSTICRFESLTLSHNNMIALKPVLQAWLEEAE | 0.143 ± 0.099
RELEAFAERFKQRRIKLGVTQADVDAALANLKIPGVGSLSQSTICRFESLTLSHNNMIALKPVLQAWLEEAE | -0.392 ± 0.25
RELEAFAERFKQRRIKLGVTQADVEAALANLKIPGVGSLSQSTICRFESLTLSHNNMIALKPVLQAWLEEAE | -0.054 ± 0.17
RELEAFAERFKQRRIKLGVTQADVFAALANLKIPGVGSLSQSTICRFESLTLSHNNMIALKPVLQAWLEEAE | -0.13 ± 0.098
RELEAFAERFKQRRIKLGVTQADVHAALANLKIPGVGSLSQSTICRFESLTLSHNNMIALKPVLQAWLEEAE | -0.269 ± 0.21
RELEAFAERFKQRRIKLGVTQADVKAALANLKIPGVGSLSQSTICRFESLTLSHNNMIALKPVLQAWLEEAE | -0.311 ± 0.37
RELEAFAERFKQRRIKLGVTQADVLAALANLKIPGVGSLSQSTICRFESLTLSHNNMIALKPVLQAWLEEAE | -0.159 ± 0.097
RELEAFAERFKQRRIKLGVTQADVMAALANLKIPGVGSLSQSTICRFESLTLSHNNMIALKPVLQAWLEEAE | -0.27 ± 0.11
RELEAFAERFKQRRIKLGVTQADVNAALANLKIPGVGSLSQSTICRFESLTLSHNNMIALKPVLQAWLEEAE | -0.963 ± 0.49
RELEAFAERFKQRRIKLGVTQADVQAALANLKIPGVGSLSQSTICRFESLTLSHNNMIALKPVLQAWLEEAE | -0.531 ± 0.36
RELEAFAERFKQRRIKLGVTQADVRAALANLKIPGVGSLSQSTICRFESLTLSHNNMIALKPVLQAWLEEAE | -0.203 ± 0.12
RELEAFAERFKQRRIKLGVTQADVSAALANLKIPGVGSLSQSTICRFESLTLSHNNMIALKPVLQAWLEEAE | -0.13 ± 0.13
RELEAFAERFKQRRIKLGVTQADVVAALANLKIPGVGSLSQSTICRFESLTLSHNNMIALKPVLQAWLEEAE | 0.05 ± 0.069
RELEAFAERFKQRRIKLGVTQADVWAALANLKIPGVGSLSQSTICRFESLTLSHNNMIALKPVLQAWLEEAE | -0.317 ± 0.14
